Like-named read-outs stand apart in the source and are kept apart here. Starred links: 1 amine or outer side, 2 acyl side, 3 side chain; linkers in the order of their positions; H or OH if unused. Non-standard residues stand in square brackets, D forms with d. Primed or numbered codes have the meaning given here. No end group written: not given here. *: point of attachment. PEG12 = NCCOCCOCCOCCOCCOCCOCCOCCOCCOCCOCCOCCOCCC(=O)O; dBip = N[C@H](Cc1ccc(-c2ccccc2)cc1)C(=O)O; BhLeu = source's own code, no definition; Oic = O=C(O)[C@@H]1C[C@@H]2CCCC[C@@H]2N1; Phe(4-Cl) = N[C@@H](Cc1ccc(Cl)cc1)C(=O)O; Phe(4-I) = N[C@@H](Cc1ccc(I)cc1)C(=O)O; γGlu = O=C(O)[C@H](CCC(=O)[*:2])N[*:1]; NMeR = CN[C@@H](CCCNC(=N)N)C(=O)O; Tridecanoyl = CCCCCCCCCCCCC(=O)*; hArg = N=C(N)NCCCC[C@H](N)C(=O)O; Cha = N[C@@H](CC1CCCCC1)C(=O)O; NMeL = CN[C@@H](CC(C)C)C(=O)O; AC4Abu″ = not defined here; code O = not defined here; Nle = CCCC[C@H](N)C(=O)O; AEEA = NCCOCCOCC(=O)O; Mpa = O=C(O)CCS
T1: human APJ receptor (human, UniProt P35414 1-380)
T1 sequence (looked up): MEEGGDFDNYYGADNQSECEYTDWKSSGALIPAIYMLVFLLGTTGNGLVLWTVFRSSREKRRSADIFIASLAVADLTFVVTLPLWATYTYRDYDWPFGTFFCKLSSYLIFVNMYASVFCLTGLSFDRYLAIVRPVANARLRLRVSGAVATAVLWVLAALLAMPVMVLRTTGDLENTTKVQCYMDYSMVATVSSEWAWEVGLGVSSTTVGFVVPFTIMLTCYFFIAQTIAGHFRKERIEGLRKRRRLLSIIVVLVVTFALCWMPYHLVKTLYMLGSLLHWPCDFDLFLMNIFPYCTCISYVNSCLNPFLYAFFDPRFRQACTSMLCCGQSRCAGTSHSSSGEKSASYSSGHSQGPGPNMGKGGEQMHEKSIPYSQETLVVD

T2: rat APJ receptor (rat, UniProt Q9JHG3 1-377)
T2 sequence (looked up): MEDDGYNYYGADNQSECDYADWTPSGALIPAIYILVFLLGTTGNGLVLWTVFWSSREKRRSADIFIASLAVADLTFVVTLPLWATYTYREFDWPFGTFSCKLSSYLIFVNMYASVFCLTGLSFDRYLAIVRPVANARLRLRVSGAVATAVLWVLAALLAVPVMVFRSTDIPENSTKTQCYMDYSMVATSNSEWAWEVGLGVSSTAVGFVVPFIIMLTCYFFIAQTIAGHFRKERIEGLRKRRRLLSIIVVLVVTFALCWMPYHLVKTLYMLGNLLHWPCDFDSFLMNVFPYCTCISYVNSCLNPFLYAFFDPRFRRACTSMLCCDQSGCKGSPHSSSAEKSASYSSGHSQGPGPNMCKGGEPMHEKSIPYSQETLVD

T3: human APJ receptor (human, UniProt P35414 1-380)
T3 sequence (looked up): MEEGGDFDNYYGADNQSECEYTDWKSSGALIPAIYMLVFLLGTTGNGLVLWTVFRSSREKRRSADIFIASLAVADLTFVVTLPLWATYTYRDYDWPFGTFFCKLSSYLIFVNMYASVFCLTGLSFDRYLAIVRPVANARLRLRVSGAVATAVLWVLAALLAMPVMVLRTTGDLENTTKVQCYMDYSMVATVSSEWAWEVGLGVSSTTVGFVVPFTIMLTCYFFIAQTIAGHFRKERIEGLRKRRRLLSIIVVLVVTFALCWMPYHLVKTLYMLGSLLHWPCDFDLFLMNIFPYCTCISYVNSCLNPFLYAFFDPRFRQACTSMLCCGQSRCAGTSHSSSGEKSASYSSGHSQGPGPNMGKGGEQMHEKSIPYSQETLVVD

T4: rat APJ receptor (rat, UniProt Q9JHG3 1-377)
T4 sequence (looked up): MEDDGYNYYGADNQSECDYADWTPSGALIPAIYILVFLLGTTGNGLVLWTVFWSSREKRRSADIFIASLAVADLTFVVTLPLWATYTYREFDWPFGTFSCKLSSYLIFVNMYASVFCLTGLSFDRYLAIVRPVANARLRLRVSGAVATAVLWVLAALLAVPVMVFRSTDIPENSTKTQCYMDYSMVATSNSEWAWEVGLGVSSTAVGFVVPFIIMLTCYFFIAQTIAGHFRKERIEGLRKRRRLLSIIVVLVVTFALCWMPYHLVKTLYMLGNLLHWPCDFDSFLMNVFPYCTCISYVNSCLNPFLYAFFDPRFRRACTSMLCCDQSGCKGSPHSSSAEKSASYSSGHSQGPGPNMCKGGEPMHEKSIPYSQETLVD


Legend:
Assay in all cases: cell-based or functional assay
human APJ receptor [1] = target: T1, human APJ receptor
rat APJ receptor [2] = target: T2, rat APJ receptor
human APJ receptor [3] = target: T3, human APJ receptor; remark: listed apart in the source
rat APJ receptor [4] = target: T4, rat APJ receptor; remark: listed apart in the source

| EC50 Human APJ Receptor (human APJ receptor [1]) | EC50 Rat APJ Receptor (rat APJ receptor [2]) | EC50 Human APJ Receptor (human APJ receptor [3]) | EC50 Rat APJ Receptor (rat APJ receptor [4]) | Binder |
| --- | --- | --- | --- | --- |
| 46.7 nM | 150 nM |  |  | {20K mPEGacetamide}-[Mpa]QRP[hArg][Cha]SHKG[Oic][Nle]P[Phe(4-Cl)]-OH (numbers in words are those of the source; also: 20 kDa PEG conjugate) [apelin polypeptide SEQ ID NO: 101] |
| 0.515 nM |  |  |  | Tridecanoyl-[AC4Abu″][AEEA][AEEA]RQRP[hArg][NMeL]SHKG[Oic][Phe(4-I)]P[dBip]-OH (reading uncertain) [apelin polypeptide SEQ ID NO: 212] |
| 0.083 nM | 0.18 nM |  |  | [PEG12]KFRRQRP[hArg][Cha]SHKG[Oic][Nle]P[Phe(4-Cl)]-OH (also: PEG-apelin peptide conjugate) [apelin polypeptide SEQ ID NO: 102] |
|  | 0.253 nM |  |  | KFRRQRP[hArg][Cha]SHKG[Oic][Nle]P[Phe(4-Cl)]-OH (not fully specified (N-terminus); printed as [MerPr](20K mPEGacetamide)KFRRQRP[hArg][Cha]SHKG[Oic][Nle]P[4-Cl-F]{COOH}; also: 20K mPEG acetamide conjugate on MerPr) [apelin polypeptide SEQ ID NO: 97] |
| 11 nM | 56.2 nM |  |  | Tridecanoyl-[γGlu][AEEA][AEEA][dQ][hArg]P[NMeR][Cha]SHKG[Oic][Nle]P[dF]-OH (SMILES CCCCCCCCCCCCC(=O)N[C@@H](CCC(=O)NCCOCCOCC(=O)NCCOCCOCC(=O)N[C@H](CCC(N)=O)C(=O)N[C@@H](CCCCNC(=N)N)C(=O)N1CCC[C@H]1C(=O)N(C)[C@@H](CCCNC(=N)N)C(=O)N[C@@H](CC1CCCCC1)C(=O)N[C@@H](CO)C(=O)N[C@@H](Cc1c[nH]cn1)C(=O)N[C@@H](CCCCN)C(=O)NCC(=O)N1[C@H](C(=O)N[C@@H](CCCC)C(=O)N2CCC[C@H]2C(=O)N[C@H](Cc2ccccc2)C(=O)O)C[C@@H]2CCCC[C@@H]21)C(=O)O) [apelin polypeptide SEQ ID NO: 126] |
| 0.152 nM |  |  |  | [hArg]Q[hArg]P[NMeR][Cha]SHKG[Oic][Nle]P[Phe(4-Cl)] [apelin polypeptide SEQ ID NO: 674] |
| 3.75 nM | 72 nM |  |  | Tridecanoyl-[γGlu][AEEA][AEEA][dR]Q[hArg]P[dR][NMeL]SHKG[Oic][Phe(4-I)]P[Oic]-OH (SMILES CCCCCCCCCCCCC(=O)N[C@@H](CCC(=O)NCCOCCOCC(=O)NCCOCCOCC(=O)N[C@H](CCCNC(=N)N)C(=O)N[C@@H](CCC(N)=O)C(=O)N[C@@H](CCCCNC(=N)N)C(=O)N1CCC[C@H]1C(=O)N[C@H](CCCNC(=N)N)C(=O)N(C)[C@@H](CC(C)C)C(=O)N[C@@H](CO)C(=O)N[C@@H](Cc1c[nH]cn1)C(=O)N[C@@H](CCCCN)C(=O)NCC(=O)N1[C@H](C(=O)N[C@@H](Cc2ccc(I)cc2)C(=O)N2CCC[C@H]2C(=O)N2[C@H](C(=O)O)C[C@@H]3CCCC[C@@H]32)C[C@@H]2CCCC[C@@H]21)C(=O)O) [apelin polypeptide SEQ ID NO: 153] |
| 3.19 nM | 9.99 nM |  |  | Tridecanoyl-[γGlu][AEEA][AEEA][hArg][dQ][hArg]P[NMeR][Cha]SHKG[Oic][Nle]P[dF]-OH (SMILES CCCCCCCCCCCCC(=O)N[C@@H](CCC(=O)NCCOCCOCC(=O)NCCOCCOCC(=O)N[C@@H](CCCCNC(=N)N)C(=O)N[C@H](CCC(N)=O)C(=O)N[C@@H](CCCCNC(=N)N)C(=O)N1CCC[C@H]1C(=O)N(C)[C@@H](CCCNC(=N)N)C(=O)N[C@@H](CC1CCCCC1)C(=O)N[C@@H](CO)C(=O)N[C@@H](Cc1c[nH]cn1)C(=O)N[C@@H](CCCCN)C(=O)NCC(=O)N1[C@H](C(=O)N[C@@H](CCCC)C(=O)N2CCC[C@H]2C(=O)N[C@H](Cc2ccccc2)C(=O)O)C[C@@H]2CCCC[C@@H]21)C(=O)O) [apelin polypeptide SEQ ID NO: 149] |
|  |  | 16.3 nM | 26.5 nM | Tridecanoyl-[γGlu][AEEA][AEEA][hArg][dR]Q[Nle]P[dR][NMeL]AHKG[Oic][Phe(4-I)]P[dBip]-OH (SMILES CCCCCCCCCCCCC(=O)N[C@@H](CCC(=O)NCCOCCOCC(=O)NCCOCCOCC(=O)N[C@@H](CCCCNC(=N)N)C(=O)N[C@H](CCCNC(=N)N)C(=O)N[C@@H](CCC(N)=O)C(=O)N[C@@H](CCCC)C(=O)N1CCC[C@H]1C(=O)N[C@H](CCCNC(=N)N)C(=O)N(C)[C@@H](CC(C)C)C(=O)N[C@@H](C)C(=O)N[C@@H](Cc1c[nH]cn1)C(=O)N[C@@H](CCCCN)C(=O)NCC(=O)N1[C@H](C(=O)N[C@@H](Cc2ccc(I)cc2)C(=O)N2CCC[C@H]2C(=O)N[C@H](Cc2ccc(-c3ccccc3)cc2)C(=O)O)C[C@@H]2CCCC[C@@H]21)C(=O)O) [SEQ ID NO: 322] |
|  | 0.503 nM |  |  | [code O]F[hArg][hArg][BhLeu][hArg]P[hArg][Cha]SHKG[Oic][Nle]P[Phe(4-Cl)] (reading uncertain; also: printed as OF[hArg][hArg][BhLeu][hArg]P[hArg][Cha]SHKG[Oic][Nle]P[4-Cl-F]) [apelin polypeptide SEQ ID NO: 692] |
